Results as given in the nanobody polyreactivity screen of Harvey et al. (2022).

test: yeast display, Sf9 membrane polyspecificity reagent, FACS + sequencing; frameworks hold sequencing errors
How it was run: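 After 36–48 hours of galactose induction, yeast (Saccharomyces cerevisiae BJ5465) displaying a synthetic nanobody library were stained at 4 °C for 1 hour with 10% biotinylated, detergent-solubilized Sf9 membrane reagent. Streptavidin microbeads enriched the stained cells before FACS sorting into low and high (top ~1%) gates on anti-HA and streptavidin fluorescence. Each clone's polyreactivity label reflects its gate of origin.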

Row | Sequence | polyreactivity (PSR sort gate)
1 | QVQLVESGGGLVQAGGSLRLSCAASGSIFAYYTMGWYRQAPGKERELVATISSGDITNYADSVKGRFTISRDNAKNTVYLQMNSLKPEDTAVYYCAAAELTSYYRTFIHQDYDYWGQGTQVTVSS | low polyreactivity
2 | QVQLVESGGGLVQAGGSLRLSCAASGSIFAYYTMGWYRQAPGNERELVAALSRSGGSTNYADSVKGRFTISRDNAKNTVYLQMISLKPEDTAVYYCAVRRYSRRLFGYYYWGQGTQVTVSS | high polyreactivity
3 | QVQLVESGGGLVQAGGSLRLSCAASGSIFCRNAMGWYRQAPGKERELVAAITSGGTTNYADSVKGRFTISRDNAKNSVYLQMNSLKPEDTAVYYCATRASYLRRYDHPHSDVDYWGQGTQVTVSS | low polyreactivity
4 | QVQLVESGGGLVQAGGSLRLSCAASGSIFDANAMGCYRQAPGKERELVAAINWTGGSTYYADSVKGRFTISRDNAKNTVYLQMNSLKPEDTAVYYCAAEWWYPYNPDIYYYWGQGIQVTVSS | high polyreactivity
5 | QVQLVESGGGLVQAGGSLRLSCAASGSIFDANAMGWYRQAPGKEREVVAAISYRGGRTYYADSVKGRFTISRDNAKNTVYLQMNSLKPEDTAVYYCNAGISHRSDNGIDGYYWGQGTQVTVSS | high polyreactivity
6 | QVQLVESGGGLVQAGGSLRLSCAASGSIFDAYAMGWYRQAPGKERELVAAISSGGNTNYADSVKGRFTISRDNAKNTVDLQMNSLKPEDTAVYYCAADFTHPDGLPGFDYWGQGTQVTVSS | low polyreactivity
7 | QVQLVESGGGLVQAGGSLRLSCAASGSIFDDYAMGWYRQAPGKERELVAAISSSGTSTYYADSVKGRFTISRDNAKNTVYLQMNSLKPEDTAVYYCAARSAILKSGYLMDYWGQGTQVTVSS | low polyreactivity
8 | QVQLVESGGGLVQAGGSLRLSCAASGSIFDFNALGWYRQAPGKERELVAAITYSGGRTYYADSVKGRFTISRDNGKYTVYLQMNSMKPEDTAVFYCAVNSFSGHGDYWGQGTQVTVSS | low polyreactivity
9 | QVQLVESGGGLVQAGGSLRLSCAASGSIFDGNAMGWYRQAPGKERELVAAISRRGGSTYYADSVKGRFTISRDKAKNTVYLQMNSLKPEDTAVYYCNAYLSYFDGNYWGQGTQVTVSS | high polyreactivity
10 | QVQLVESGGGLVQAGGSLRLSCAASGSIFDINAMGWYRQAPWKERELVAAISLSAGSTYYADSVKGRFTISRDNSKNTVYFQMNSLYPDDAAVFYCNADGWYGYWGQVTQVTVSS | low polyreactivity
11 | QVQLVESGGGLVQAGGSLRLSCAASGSIFDIYAMGWYRPAPGKERELVAAISLSAGSTYYADSVKGRFTISRDNAKNTVYLQMNSLKPEDTAVYYCNADGWYGYWGQGTQVTVSS | low polyreactivity
12 | QVQLVESGGGLVQAGGSLRLSCAASGSIFDIYAMGWYRQAPGKERELVATITWDGVSTYYADSVKGRFTISRDNAKNTVYLQMNSLKPEDTAVYYCNVVVRYPSAYDYWGQGTQVTVSS | high polyreactivity
13 | QVQLVESGGGLVQAGGSLRLSCAASGSIFDIYGMGWYRKAPGKERELVASISGGAGSTNYADSVKGRFTISRDNAKNTVYLQMNSLKPEDTAVYYCAAEVYVPDYFQHKFDVEYEYWGQGTQVTVSS | low polyreactivity
14 | QVQLVESGGGLVQAGGSLRLSCAASGSIFDLNAMGWYRQAPGKERELGAAISSGGGTYYADSVKGRFTISRDNAKNTVYLQMNSLKPEDTAVYYCNRVTSWTYNYWGQGTQVTVSS | high polyreactivity
15 | QVQLVESGGGLVQAGGSLRLSCAASGSIFDLYAMGWYRQAPGKERELVAAINWTGGSTYYADSVKGRFTISRDNAKNTVYLQMNSLKPEDTAVYYCAASYYYGTEHYDYWGQGTQVTVSS | low polyreactivity
16 | QVQLVESGGGLVQAGGSLRLSCAASGSIFDNAMGWYRQAPGKERELVADITNNGGSTYYADSVKGRFTISRDNAKNTVYLQMNSLKPEDTAVYYCAKRRNYWFSFDYWGQGTQVTVSS | low polyreactivity
17 | QVQLVESGGGLVQAGGSLRLSCAASGSIFDNAMGWYRQAPGKERELVASIDQSGGSTYYADSVKGRFTISRDNAKNTVYLQMNSLKPEDTAVYYCAADSFTGYPYEMDYWGQGTQVTVSS | low polyreactivity
18 | QVQLVESGGGLVQAGGSLRLSCAASGSIFDNNAMGWYRQAPGKERELVAAIRRTSTTYYADSVKGRFTISRDNAKNTVYLQMNSLKPEDTAVYYCAATYGSGYWYPRYYYWGQGTQVTVSS | high polyreactivity
19 | QVQLVESGGGLVQAGGSLRLSCAASGSIFDPYAMGWYRQAPGKERELVAAIDYSGGSTYYADSVKGRFTISRDNAKNTVYLQMNSLKPEDTAVSYCAADYFWLYYSEYGYWGQGTQVTVSS | low polyreactivity
20 | QVQLVESGGGLVQAGGSLRLSCAASGSIFDPYAMGWYRQAPGKERELVAAIRWGGGTTYYADSVKGRFTISRDNSKITVSLQMNSLKPEDTAVYYCAASWDWYDYWYDYWGQGTQVTVSS | high polyreactivity
21 | QVQLVESGGGLVQAGGSLRLSCAASGSIFDPYAMGWYRQAPGKERELVAAISGSGGSTYYADSVKGRFTISRDNAKNTVYLQMNSLKPEDTALYFCAAADAWWGRRYKYYHWGQGPQVTVSS | low polyreactivity
22 | QVQLVESGGGLVQAGGSLRLSCAASGSIFDPYAMGWYRQAPGKERELVAAITSDGSTNYADSVKGRFTISRDNAKNTVYLQMNSLKPEDTAVYYCAARYNLGEYDYWGQGTQVTVSS | low polyreactivity
23 | QVQLVESGGGLVQAGGSLRLSCAASGSIFDPYAMGWYRQAPGKERELVAGISFSGGRTYYADSVKGRFTISRDNAKNTVYLQMNSLKPEDTAVYYCNKLLTQGAYPYYYWGQGTQVTVSS | high polyreactivity
24 | QVQLVESGGGLVQAGGSLRLSCAASGSIFDQYAMGWYRQAPGKERELVAGISSNGGTSTYYADSVKGRFTISRDNAKNTVYLQMNSLKAEDTAVYYCAAQSHYVDQYGYWGQGTQVTVSS | low polyreactivity
25 | QVQLVESGGGLVQAGGSLRLSCAASGSIFDRNAMGWYRQAPGKERELVAAINSNAGITYYADSVKGRFTISRDNAKITVYLQMNSLKPEDTAVYYCAADIRVVYREDHWGQGTQVTVSS | low polyreactivity
26 | QVQLVESGGGLVQAGGSLRLSCAASGSIFDRNAMGWYRQAPGKERELVATITWSGVSTYYADSVKGRFTISRDNAKNTVYLQMKSLKPEDTAVYYCYADYSYRHWYDPGQYGQAMGYWGQGTKVTVSS | low polyreactivity
27 | QVQLVESGGGLVQAGGSLRLSCAASGSIFDRNAMGWYRQAPGKERELVSAISRGGRTYYADSVKGRFTISRDNAKNTVYLQMNSLKPEVTAVYYCAAGYPSAWAYTTDDYWGQGTQVTVSS | low polyreactivity
28 | QVQLVESGGGLVQAGGSLRLSCAASGSIFDRYVMGWYRPAPGKERELVAAISKSGGNTYYADSVKGRFTISRDYEKNTVYLQMNSLKPEDTAVYYCNARSGRYYLGYGYWGQGTQVTVSS | high polyreactivity
29 | QVQLVESGGGLVQAGGSLRLSCAASGSIFDSNAMGWYRQAPGKERELVAAINRSDASTYYADSVKGRFTISRDNAKNTDYLQMTSPQPEGTAVYYCGVEVYVYNVHIYDYWGQGTQVTVSS | low polyreactivity
30 | QVQLVESGGGLVQAGGSLRLSCAASGSIFDSNAMGWYRQAPGKERELVAAMDDAGATTYYADSVQGRFTISRDNAKNTVYLQMNSLKPEDTAVYYCAAETYTGSLAYYRVYYYWGQGTQVTVSS | low polyreactivity
